Test results published in article doi:10.1101/2025.10.27.684941.

Experiments:
[1] = biological target: Venus-PDZ1 (ZO-1) (human) (UniProt Q07157); test: co-IP
[2] = biological target: biotinylated C-terminal Cx36 peptide, D317A (UniProt O54851); test: pull-down
[3] = biological target: biotinylated C-terminal Cx36 peptide, D317F (UniProt O54851); test: pull-down

Chain of UniProt Q07157 (Q07157 whole entry): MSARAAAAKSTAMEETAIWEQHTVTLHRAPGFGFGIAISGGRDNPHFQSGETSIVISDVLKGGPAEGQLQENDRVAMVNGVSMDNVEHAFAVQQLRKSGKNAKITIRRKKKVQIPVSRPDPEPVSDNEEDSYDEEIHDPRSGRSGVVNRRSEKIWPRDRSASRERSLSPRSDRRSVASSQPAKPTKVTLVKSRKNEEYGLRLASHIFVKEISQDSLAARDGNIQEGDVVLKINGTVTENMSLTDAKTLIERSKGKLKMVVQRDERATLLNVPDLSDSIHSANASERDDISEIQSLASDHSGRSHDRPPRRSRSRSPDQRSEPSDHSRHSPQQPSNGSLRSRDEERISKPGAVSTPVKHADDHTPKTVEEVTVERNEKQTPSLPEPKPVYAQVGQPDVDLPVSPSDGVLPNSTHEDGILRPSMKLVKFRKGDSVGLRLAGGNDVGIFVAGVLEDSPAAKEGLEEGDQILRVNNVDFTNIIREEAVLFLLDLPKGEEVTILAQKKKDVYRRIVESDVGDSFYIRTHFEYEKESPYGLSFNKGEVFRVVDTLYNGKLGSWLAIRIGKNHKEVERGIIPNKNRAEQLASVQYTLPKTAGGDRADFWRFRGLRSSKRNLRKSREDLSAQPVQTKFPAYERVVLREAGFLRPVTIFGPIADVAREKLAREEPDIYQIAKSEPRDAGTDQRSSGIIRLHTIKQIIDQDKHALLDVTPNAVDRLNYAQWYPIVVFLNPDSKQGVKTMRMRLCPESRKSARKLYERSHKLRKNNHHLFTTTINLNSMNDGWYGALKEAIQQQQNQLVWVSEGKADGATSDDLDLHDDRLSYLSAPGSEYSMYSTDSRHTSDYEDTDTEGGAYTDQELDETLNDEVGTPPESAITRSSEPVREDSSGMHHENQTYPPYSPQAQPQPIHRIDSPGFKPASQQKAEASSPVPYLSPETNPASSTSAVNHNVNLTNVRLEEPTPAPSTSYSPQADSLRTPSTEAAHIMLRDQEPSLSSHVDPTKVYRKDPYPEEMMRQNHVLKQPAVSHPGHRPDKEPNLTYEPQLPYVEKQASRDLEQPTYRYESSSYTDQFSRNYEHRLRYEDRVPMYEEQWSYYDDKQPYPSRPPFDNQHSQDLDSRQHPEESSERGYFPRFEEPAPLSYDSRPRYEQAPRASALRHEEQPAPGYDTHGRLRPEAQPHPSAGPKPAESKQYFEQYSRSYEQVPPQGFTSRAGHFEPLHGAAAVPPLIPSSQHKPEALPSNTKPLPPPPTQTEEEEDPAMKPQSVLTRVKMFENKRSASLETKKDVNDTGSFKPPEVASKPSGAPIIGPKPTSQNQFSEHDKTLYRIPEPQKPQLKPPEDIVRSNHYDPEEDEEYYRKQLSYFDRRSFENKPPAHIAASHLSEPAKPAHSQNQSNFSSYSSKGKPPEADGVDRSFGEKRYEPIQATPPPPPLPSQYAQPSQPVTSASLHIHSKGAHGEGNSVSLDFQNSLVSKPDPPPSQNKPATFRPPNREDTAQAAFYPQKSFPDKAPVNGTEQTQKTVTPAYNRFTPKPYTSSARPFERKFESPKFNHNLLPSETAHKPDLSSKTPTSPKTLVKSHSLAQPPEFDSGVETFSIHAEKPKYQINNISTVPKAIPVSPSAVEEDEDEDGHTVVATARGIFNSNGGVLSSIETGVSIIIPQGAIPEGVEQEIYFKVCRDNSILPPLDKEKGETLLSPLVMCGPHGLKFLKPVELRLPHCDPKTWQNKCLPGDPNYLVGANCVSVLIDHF

| fold increase in binding over wild type Cx36 [1] [times] | fold increase in binding over the wild-type peptide [2] [fold] | fold increase in binding over the wild-type peptide [3] [fold] | Substance |
| --- | --- | --- | --- |
| 5 to 7 | – | – | Cx36 D317A (from UniProt O54851 1-321) (natural protein) |
| – | 5 | 10 | His-Venus-PDZ1 (ZO-1) (domain or fragment) |
| 5 to 7 | – | – | Cx36 D317F (from UniProt O54851 1-321) (natural protein) |
